7 molecules from publication PMC10289200, “Detection of Arc/Arg3.1 oligomers in rat brain: constitutive and synaptic activity-evoked dimer expression in vivo” (Frontiers in Molecular Neuroscience, 2023) can be followed below.

A word on the stoichiometry N: it is the number of molecules, sites or subunits per partner or assembly.

Data set [1] deals with the molecule itself. The data set is described as follows: cross-linking; DSG-crosslinked pooled rat DG (1, 2, 4 h post-HFS), then Arc immunoprecipitation (rabbit anti-Arc antibody or ALFA-H11 nanobody) and Arc immunoblot.
Data set [2] deals with the molecule itself. The data set is described as follows: cross-linking; in situ/ex vivo, 0.5 mM DSG, 30 min, 37 °C, PBS pH 7.4, ~0.5 mm slices of rat DG, CA or cortex (naive, HFS-LTP or BDNF-LTP); lysis in 1% Triton X-100; SDS-PAGE with DTT and immunoblot.
Data set [3] concerns the molecule itself. Nature of the data set: cross-linking; in situ, 0.2 mM DSG, 10 min, 4 °C, in PBS pH 7.4, harvested SH-SY5Y cells (untreated or carbachol) or cortical neuronal cultures (untreated or BDNF); quenched with 50 mM Tris-HCl; SDS-PAGE with DTT and immunoblot.
Data set [4] concerns the molecule itself. Nature of the data set: cross-linking + affinity purification with mass spectrometry; in situ, 0.1 mM DSG, 10 min, 4 °C, mTq2-Arc transfected HEK293FT cells; immunoblot, Arc immunoprecipitation and LC-MS/MS of gel-excised bands (~75, 150, 250, >250 kDa). Background: A western blot detects proteins with antibodies after separation by electrophoresis.
Data set [5] deals with the molecule itself. The data set is described as follows: SDS-PAGE and immunoblot without cross-linker; non-crosslinked (DMSO only) cells or tissue, boiled in Laemmli buffer with DTT; species that resist SDS.
Data set [6] has as its target T1, DJ-1, endogenous in SH-SY5Y cells (human (endogenous in SH-SY5Y)), Q99497.
T1 chain: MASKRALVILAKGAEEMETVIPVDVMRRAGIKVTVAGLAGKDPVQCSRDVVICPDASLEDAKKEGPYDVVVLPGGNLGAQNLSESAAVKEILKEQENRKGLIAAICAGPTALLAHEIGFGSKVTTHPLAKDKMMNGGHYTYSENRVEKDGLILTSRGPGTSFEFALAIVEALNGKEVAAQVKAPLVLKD
The data set is described as follows: cross-linking; in situ, 0.2 mM DSG, 10 min, 4 °C, in PBS pH 7.4, harvested SH-SY5Y cells (untreated or carbachol) or cortical neuronal cultures (untreated or BDNF); quenched with 50 mM Tris-HCl; SDS-PAGE with DTT and immunoblot. Conditions: remark: other sources report otherwise.

Data set [7] deals with the molecule itself. The data set is described as follows: cross-linking; thiol-cleavable DSP on rat CA tissue; non-reducing SDS-PAGE and immunoblot; crosslinks reversed by DTT.

B1: Arc, endogenous in rat brain tissue (dentate gyrus, hippocampal CA, cortex) (natural protein, rat (endogenous in rat brain tissue), UniProt Q63053 1-396, looked up)
chain: MELDHMTTGGLHAYPAPRGGPAAKPNVILQIGKCRAEMLEHVRRTHRHLLTEVSKQVERELKGLHRSVGKLENNLDGYVPTGDSQRWKKSIKACLCRCQETIANLERWVKREMHVWREVFYRLERWADRLESMGGKYPVGSEPARHTVSVGVGGPEPYCQEADGYDYTVSPYAITPPPAAGELPEQESVGAQQYQSWVPGEDGQPSPGVDTQIFEDPREFLSHLEEYLRQVGGSEEYWLSQIQNHMNGPAKKWWEFKQGSVKNWVEFKKEFLQYSEGTLSREAIQRELDLPQKQGEPLDQFLWRKRDLYQTLYVDAEEEEIIQYVVGTLQPKFKRFLRHPLPKTLEQLIQRGMEVQDGLEQAAEPSVTPLPTEDETEALTPALTSESVASDRTQPE
notes: Arc (Arg3.1), endogenous in adult Sprague-Dawley rat brain tissue; monomer at ~55 kDa on SDS-PAGE; also called Arg3.1; endogenous Arc; source: endogenous, rat brain tissue (DG, CA, cortex), in tissue / lysate
Consider B1, for which the “stoichiometry N” value in data set [1] was 2. In data set [2], the “ratio of dimer:monomer in the DSG lane (BDNF-LTP, 2 h)” value amounted to 0.56 and the “ratio of dimer:monomer in the DSG lane (HFS-LTP, 2 h)” value came to 0.4.

B2: Arc, endogenous in primary cortical neuronal cultures (natural protein, UniProt Q63053 1-396, looked up)
chain: MELDHMTTGGLHAYPAPRGGPAAKPNVILQIGKCRAEMLEHVRRTHRHLLTEVSKQVERELKGLHRSVGKLENNLDGYVPTGDSQRWKKSIKACLCRCQETIANLERWVKREMHVWREVFYRLERWADRLESMGGKYPVGSEPARHTVSVGVGGPEPYCQEADGYDYTVSPYAITPPPAAGELPEQESVGAQQYQSWVPGEDGQPSPGVDTQIFEDPREFLSHLEEYLRQVGGSEEYWLSQIQNHMNGPAKKWWEFKQGSVKNWVEFKKEFLQYSEGTLSREAIQRELDLPQKQGEPLDQFLWRKRDLYQTLYVDAEEEEIIQYVVGTLQPKFKRFLRHPLPKTLEQLIQRGMEVQDGLEQAAEPSVTPLPTEDETEALTPALTSESVASDRTQPE
notes: Arc (Arg3.1), endogenous in primary cortical neurons; also called Arg3.1; source: endogenous, primary cortical neuronal cultures (BDNF 50 ng/mL, 2 h), in cells / lysate
Turning to B2, the “stoichiometry N” value in data set [3] amounted to 2.

B3: Arc N-terminally fused to monomeric Turquoise 2 (mTq2-Arc) (natural protein, UniProt Q63053 1-396, looked up)
chain: MELDHMTTGGLHAYPAPRGGPAAKPNVILQIGKCRAEMLEHVRRTHRHLLTEVSKQVERELKGLHRSVGKLENNLDGYVPTGDSQRWKKSIKACLCRCQETIANLERWVKREMHVWREVFYRLERWADRLESMGGKYPVGSEPARHTVSVGVGGPEPYCQEADGYDYTVSPYAITPPPAAGELPEQESVGAQQYQSWVPGEDGQPSPGVDTQIFEDPREFLSHLEEYLRQVGGSEEYWLSQIQNHMNGPAKKWWEFKQGSVKNWVEFKKEFLQYSEGTLSREAIQRELDLPQKQGEPLDQFLWRKRDLYQTLYVDAEEEEIIQYVVGTLQPKFKRFLRHPLPKTLEQLIQRGMEVQDGLEQAAEPSVTPLPTEDETEALTPALTSESVASDRTQPE
notes: Arc; fusion monomer at ~75 kDa on SDS-PAGE; The crosslinking in HEK293FT cells follows Eriksen et al. (2021); the construct may be described there; also called ectopic Arc; source: HEK293FT, transfected (CMV promoter), in cells / lysate; not shown: monomeric Turquoise 2 (mTq2), N-terminal, kept
For B3, the “stoichiometry N” value in data set [4] stood at 2.

B4: rArc-StrepII-HA, stably expressed in SH-SY5Y cells (natural protein, UniProt Q63053 1-396, looked up)
chain: MELDHMTTGGLHAYPAPRGGPAAKPNVILQIGKCRAEMLEHVRRTHRHLLTEVSKQVERELKGLHRSVGKLENNLDGYVPTGDSQRWKKSIKACLCRCQETIANLERWVKREMHVWREVFYRLERWADRLESMGGKYPVGSEPARHTVSVGVGGPEPYCQEADGYDYTVSPYAITPPPAAGELPEQESVGAQQYQSWVPGEDGQPSPGVDTQIFEDPREFLSHLEEYLRQVGGSEEYWLSQIQNHMNGPAKKWWEFKQGSVKNWVEFKKEFLQYSEGTLSREAIQRELDLPQKQGEPLDQFLWRKRDLYQTLYVDAEEEEIIQYVVGTLQPKFKRFLRHPLPKTLEQLIQRGMEVQDGLEQAAEPSVTPLPTEDETEALTPALTSESVASDRTQPE
notes: Arc printed as rArc in the cassette CMV::rArc-StrepII-HA; the species is not spelt out; monomer at ~60 kDa on SDS-PAGE; also called tagged-Arc; exogenous Arc
With B4, the “stoichiometry N” value in data set [5] amounted to 2.

B5: Activity-regulated cytoskeleton-associated protein (Arc), endogenous in human SH-SY5Y neuroblastoma cells (natural protein, human (endogenous in SH-SY5Y), UniProt Q7LC44 1-396, looked up)
chain: MELDHRTSGGLHAYPGPRGGQVAKPNVILQIGKCRAEMLEHVRRTHRHLLAEVSKQVERELKGLHRSVGKLESNLDGYVPTSDSQRWKKSIKACLCRCQETIANLERWVKREMHVWREVFYRLERWADRLESTGGKYPVGSESARHTVSVGVGGPESYCHEADGYDYTVSPYAITPPPAAGELPGQEPAEAQQYQPWVPGEDGQPSPGVDTQIFEDPREFLSHLEEYLRQVGGSEEYWLSQIQNHMNGPAKKWWEFKQGSVKNWVEFKKEFLQYSEGTLSREAIQRELDLPQKQGEPLDQFLWRKRDLYQTLYVDADEEEIIQYVVGTLQPKLKRFLRHPLPKTLEQLIQRGMEVQDDLEQAAEPAGPHLPVEDEAETLTPAPNSESVASDRTQPE
notes: Arc (Arg3.1), endogenous in human SH-SY5Y neuroblastoma cells; monomer at ~50 kDa on SDS-PAGE; also called Arg3.1; endogenous Arc; source: endogenous, SH-SY5Y cells (induced with 100 uM carbachol), in cells / lysate
As to B5, the “stoichiometry N” value in data set [3] was found to be 2.

B6: DJ-1, endogenous in SH-SY5Y cells, Q99497 1-189 (natural protein)
chain: MASKRALVILAKGAEEMETVIPVDVMRRAGIKVTVAGLAGKDPVQCSRDVVICPDASLEDAKKEGPYDVVVLPGGNLGAQNLSESAAVKEILKEQENRKGLIAAICAGPTALLAHEIGFGSKVTTHPLAKDKMMNGGHYTYSENRVEKDGLILTSRGPGTSFEFALAIVEALNGKEVAAQVKAPLVLKD
Regarding B6, the stoichiometry N in data set [6] is 2.

B7: DJ-1, endogenous in rat brain tissue (natural protein, rat (endogenous in rat brain tissue), UniProt O88767 1-189, looked up)
chain: MASKRALVILAKGAEEMETVIPVDIMRRAGIKVTVAGLAGKDPVQCSRDVVICPDTSLEEAKTQGPYDVVVLPGGNLGAQNLSESALVKEILKEQENRKGLIAAICAGPTALLAHEVGFGCKVTSHPLAKDKMMNGSHYSYSESRVEKDGLILTSRGPGTSFEFALAIVEALSGKDMANQVKAPLVLKD
notes: DJ-1, endogenous in rat DG, CA and cortical tissue; also called DJ-I; source: endogenous, rat brain tissue (DG, CA, cortex), in tissue / lysate
For the molecule B7, the “stoichiometry N” value in data set [7] was determined as 2.
